Patent publication US20240158799, “[…] THAT […] BIND TO A SARS-COV-2 VIRUS NUCLEOCAPSID PROTEIN” (IQ SCIENCE LIMITED, published 2024)

B1: SS20 (ssDNA)
DNA: TAACCACATAACCGCAAGACGAACACCGATGCCGCGCACAATCGTGTAAACGGATGTCCTATTGTGCTACTCTCCTCGT
B2: SS04 (ssDNA)
DNA: TAACCACATAACCGCAAGACGAACGAACCATATAACGCGTAGTAACATCCAAGGCGCCCTATTGTGCTACTCTCCTCGT
B3: SS10 (ssDNA)
DNA: TAACCACATAACCGCAAGACGCACGCAAAACTTTCAGTAATCCTAAGATGCCATGTTACTATTGTGCTACTCTCCTCGT
B4: SS12 (ssDNA)
DNA: TAACCACATAACCGCAAGACGATGGCCGCAACCGAGAAACTATGACGATGGATCACGGCTATTGTGCTACTCTCCTCGT
B5: SS48 (ssDNA)
DNA: TAACCACATAACCGCAAGACGACGACACAAAAGCATTTCGGCAATCCGACAGTGGTCCATATTGTGCTACTCTCCTCGT
B6: SS18 (ssDNA)
DNA: TAACCACATAACCGCAAGACCAGCAGAAAACTCAACATAAGCAGCAGTTCGGGCGCTACTATTGTGCTACTCTCCTCGT
B7: N08 (ssDNA)
DNA: TAACCACATAACCGCAAGACCACACGCACGAAAACAATTGACATGAAATTTACGGCTCTTATTGTGCTACTCTCCTCGT
B8: N11 (ssDNA)
DNA: TAACCACATAACCGCAAGACGACGCGATACAAAACACTACTAATCTCTCGTCGCACTAGTATTGTGCTACTCTCCTCGT
B9: N06 (ssDNA)
DNA: TAACCACATAACCGCAAGATCCCGATAGACCCGCGTCTCATGTACCTTACATGCTACGATATTGTGCTACTCTCCTCGT

These binders were tested against SARS-CoV-2 spike protein (S1/S2 complex) (SARS-CoV-2, UniProt P0DTC2 P0DTC2:14-1213).

Q: Does B1 bind?
A: binds

Q: Does B2 bind?
A: binds

Q: Does B3 bind?
A: binds

Q: Does B4 bind?
A: binds

Q: Does B5 bind?
A: binds

Q: Does B6 bind?
A: binds

Each binder was assayed against SARS-CoV-2 nucleocapsid protein (SARS-CoV-2, UniProt P0DTC9 P0DTC9:1-419).

Q: With B7 as the binder, how does the Kd read?
A: 18.7 nM

Q: How did the Kd turn out when B8 was run?
A: 29.6 nM

Q: For B9, which Kd is on record?
A: 25.1 nM
